Among the data in the supplement of paper PMC12042874 are amyloid nucleation score values, retold here.

This series can be described thus: amyloid nucleation score (Sup35N fusion, yeast selection) (log enrichment); library NNK3; higher = more nucleation; inactive = no reads after selection. A digest of the protocol: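 The nucleation score is the log enrichment of output over input reads, calculated with DiMSum and centred on the mode score of non-aggregating sequences. Sequences with under 100 input reads were excluded. Reads came from Illumina sequencing of plasmid inserts from psi-negative yeast expressing Sup35N fused to peptides of 20 random codons, induced 24 hours with 100 μM copper sulfate and grown 7 days at 30°C without adenine and uracil.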

± gives the uncertainty stated by the source.

For the substance HSIGPVIKRCCVIFSLR, the amyloid nucleation score result was “inactive”.
Turning to GYAHLLMANLRWSSTRLA, the amyloid nucleation score entry is “inactive”.
Next, VFIPVASVIKWGSFKP: 0.65 ± 0.21; GCIVFCCRTLVNFDVVVYWF: “inactive”; SRECLRKLDVSNSTRIK: -0.097 ± 0.24.
Next, YRPAALSYQTRVCGTYWNDR: “inactive”; AIGMMASRWNLWCITLFLLK: “inactive”; VAPWKKPLPMKVTSAQFPNR: “inactive”.
Next, GFEVNKACQLIEYPLFFTRL: “inactive”.
Substance LSPYRYSCYPYPTYSRYP gave an amyloid nucleation score of 0.44 ± 0.24.
Next, IYMRRESGVLGEQ: “inactive”; FSGVLLNVYYGIHYTISIYR: “inactive”; SDIGVCSLKICSTIILVANM: “inactive”.
For SVTSHDPMACHLLVCSV the value was “inactive”; for LVTGNVYVF, “inactive”; for QDLGECN, “inactive”.
The substance NWGMTNAFFISGKRSGMSSM registered an amyloid nucleation score of 0.42 ± 0.38.
Next, GYLQGIYYGFTSCRKTSNQD: “inactive”; FLMSHVII: “inactive”; PTAHYWSVRSRSIDPPACQW: “inactive”.
RNYRGTSEIRCVPWLSSVSW: the amyloid nucleation score entry was “inactive”.
In the case of VEDKCVWFV, the amyloid nucleation score entry was “inactive”.
Take CLISLDHIFLPSWNTGICIL: the amyloid nucleation score entry is “inactive”.
Consider NFGRAQSNACAENVFAIERG, for which the amyloid nucleation score result was “inactive”.
Next, VVSLMDTPFD: “inactive”; KRSFGRVIRDIDEYRMVRVV: “inactive”.
For YLFPRVSLICERIWIENVGY the value was “inactive”; for ALRQRNDCEPYIVRTFWVET, “inactive”.
On to FKEWVFCMYECE, for which the amyloid nucleation score entry was “inactive”.
Take AVYGVFRRRS: the amyloid nucleation score result was “inactive”.
Next, RANDEEFHR: “inactive”; VSNYDLESS: “inactive”; ILVYSVLIV: “inactive”.
LLAGQAIEIDVCAQGLKLKF had an amyloid nucleation score of -0.968 ± 1.8.
For KVVIF the value was “inactive”; for DVYGDGCSCYSVKYTCDRCQ, “inactive”; for TVVRNGIKTVYGLVDCVDS, “inactive”.
TWLRSYMLYYVVWFF: the amyloid nucleation score result is “inactive”.
With FFYYMYMFDVITILRVIMGC, the amyloid nucleation score entry was “inactive”.
As for PFLLSMNVGQGFRRV, the amyloid nucleation score result is “inactive”.
Next, KSAWLRLCIVR: “inactive”; SCIYMSC: 1.73 ± 0.073; GPLESIFNQFAVIATVPRVW: “inactive”.
For MICAGVMIGYALFYFQIWSC the value was “inactive”; for ILLQVLIR, “inactive”.
For VPLIMSRGRRCRMLFKLPST the value was “inactive”; for CGRRALSTELIVCLCSPFYV, “inactive”.
For YYVSYN, the amyloid nucleation score entry was “inactive”.
Next, RKDVSCSPLLNCETVSVQ: “inactive”.
NRSTLYSSLCGYRVRENISW: the amyloid nucleation score came out at 1.4 ± 0.097.
For RPRHDHWNDVNDATSYRYVM the value was “inactive”; for LLGLFRLFKPQAFKGSPAAS, “inactive”; for TSCGISSSAGFSVFMSEGAK, 0.692 ± 0.13.
Next, PDYGMSLCHLPTWMW: “inactive”; MCLVFKTEIRGLKAFCMCSF: “inactive”; MCVRPLPSRLGTVGLWN: “inactive”.
Next, QAQVDKCLLARFVGL: “inactive”; NLYMDEHHFKAFNGCTNQLI: “inactive”.
With YKETDLQIFRAIVVSSSYWD, the amyloid nucleation score result was “inactive”.
For the substance QATFGWTANSSLFFSRDFLA, the amyloid nucleation score result is “inactive”.
ILRWRHMVVWSPNVHGVGAF: the amyloid nucleation score result is “inactive”.
HSLFIFNFGCL: the amyloid nucleation score worked out at 2.96 ± 0.054.
For FRVHLFFGKWRVVVCTR the value was “inactive”.
For GDMVCFVLMKALV the value was “inactive”; for GLKWWLISASSVNFICVRYT, 0.104 ± 0.23; for PLLMDPTFPFAIRTDMVSLR, “inactive”.
For NVFSFFTTSSEKGLCPPRRS the value was “inactive”; for AITVGLSGARRD, “inactive”.
Substance SYLKRGKSVAIQLTYGS returned an amyloid nucleation score of 0.405 ± 0.67.
For the substance REHLLDHTRLYC, the amyloid nucleation score result is “inactive”.
For GEFYCVVLRQYVWAQDDAG the value was “inactive”; for SWHDINVAFADSFIDSKETC, “inactive”.
Take AYLFLLWSW: the amyloid nucleation score result was “inactive”.
In the case of SVVMVRSVYIERSVEPPAPG, the amyloid nucleation score is -0.607 ± 1.4.
KPCVTFSHSAIRISVTWSTN: the amyloid nucleation score was -0.079 ± 0.38.
Next, VMLCFTFSMLVLVGGQVCLY: “inactive”; YEYYGVKRCIVLG: “inactive”; LYYRGLRQRLTPKLGRFRLC: “inactive”.
Next, SMDVKHRR: “inactive”.
For VIKTTNNQ the value was 1.09 ± 0.11; for SVAKNCWCPKCGMSSTFDSI, “inactive”; for GRDEQNHRFELVL, “inactive”.
INYQLMW: the amyloid nucleation score turned out to be 0.9 ± 0.1.
For SNCFQYECMSWSWDYLHECW the value was “inactive”.
On to ASRHSQMWIS, for which the amyloid nucleation score was 0.129 ± 0.88.
Next, VMCLRTFGASSFFI: -0.023 ± 0.55; TDPGILYMSCIRVMLGLFWD: “inactive”.
For MVKGGKDHSSVGPC the value was “inactive”; for SPTLRFGRQKFRQCGVKRVS, 1.35 ± 0.11.
Next, FTNLMLTTMCSLTLLTRGFP: “inactive”; ALCKCALG: “inactive”; SGWTTQVRNKDGWASQLVSE: “inactive”.
As to LSLDLSPSNLNPRWFDTPFH, the amyloid nucleation score result was “inactive”.
Next, SWSFDWFQSIVVGYLTCALA: “inactive”.
Next, LMDLNADKWHNAFTYSSVVE: “inactive”.
Next, SVYTGISLSKFHGSPLVRV: -0.408 ± 1.2.
As to YIFFWKRTFLP, the amyloid nucleation score entry was “inactive”.
As to TWNVPWE, the amyloid nucleation score entry is “inactive”.
Next, LSEWI: “inactive”; LRQGWILVA: “inactive”; REYRIFLVPCFSISDRGGSW: “inactive”.
For CKVSAL the value was “inactive”; for YGYSVPGKIEFYVGVIGRNP, 1.2 ± 0.085; for SNRGVADLDLRGLWTARE, “inactive”.
The substance SKACAVLAYNLVGFEFHFEF registered an amyloid nucleation score of 1.69 ± 0.074.
Next, TQCEVYCIYGVTHGLE: “inactive”; AYRLEPT: “inactive”; NLKLAWNRLSRMHWFLMNRS: “inactive”.
Turning to CRVFDYFSLRVYVTVRYSLF, the amyloid nucleation score result was “inactive”.
For the substance YGYEHALQFIFYLFNHLSWS, the amyloid nucleation score entry is “inactive”.
On to RLPCPCNSVACVRTWISRCS, for which the amyloid nucleation score result is “inactive”.
For PVLLIRSKFDQRRAWSFHTV the value was “inactive”.
For RANLSDFYYSSSIDLKLPLT the value was “inactive”; for YEVNGFAQNRA, -0.564 ± 1; for LFNTRERRYMEWPTAWRLRR, “inactive”.
For LVTETLFYCH the value was “inactive”.
On to WVHCSPGDRSFTLGTPSFHK, for which the amyloid nucleation score result was “inactive”.
Turning to VFTNGRSYISRMISYYKYCR, the amyloid nucleation score entry was “inactive”.
Next, LGICGVRRSLMKRR: “inactive”; NRSFSNGCVIRLELFNNVYA: “inactive”.
As for DFRLLWVQTMSFCLNYQAKL, the amyloid nucleation score result is “inactive”.
For QCFKDRMWHGICREPVAKIG the value was “inactive”; for AGGLSGDNWRRIDG, “inactive”.
For MDLITFGKKMREAQARILLV the value was “inactive”.
Next, YQGNLGPHT: “inactive”.
As to HSWWLWNGFVGLAPLVDNFF, the amyloid nucleation score result is “inactive”.
In the case of NFGQNCN, the amyloid nucleation score was -0.48 ± 0.57.
For RLRVFVIGLPGALQIVGSLG, the amyloid nucleation score amounted to 0.005 ± 0.98.
For SQVFTVALNVPNNR the value was “inactive”; for MALLPGVAGTSYK, -0.435 ± 1.3.
Next, CPFLILIFGYPK: “inactive”; TAVKTGGLLRVVALGNSLNA: 0.399 ± 0.24.
